The values below come from the supplement of paper PMC10567573.

The chains are these.
B1: FAM189A2 (parent)
chain: VAAALRYLQIFATRRSCIDESQIS
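Further: lentivirally expressed fusions sorted by FACS into six bins by GFP to DsRed ratio, PSI derived from sequencing read proportions per bin multiplied by bin number.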

The data set covers variants of B1. Kind of data set: protein stability index of a GFP-peptide fusion (GPS, HEK-293T) (PSI 1-6); higher = more stable. Particulars: c terminus: a fixed tail appended.
As for VAAALRYLQIFATRRSCILESQIS [D19L], the protein stability index was found to be 3.03.

For the variant VAAALRYLQIFATRRSCIAESQIS [D19A], the protein stability index amounted to 2.45.

Take VAAALRYLQIFATRRSCIKESQIS [D19K]: the protein stability index was determined as 3.22.

As for VAAALRYLQIFATRRSCIGESQIS [D19G], the protein stability index was 2.56.

For the variant VAAALRYLQIFATRRSCIIESQIS [D19I], the protein stability index was found to be 2.5.

Turning to VAAALRYLQIFATRRSCIEESQIS [D19E], the protein stability index is 2.01.

As for VAAALRYLQIFATRRSCITESQIS [D19T], the protein stability index worked out at 2.36.

In the case of VAAALRYLQIFATRRSCIFESQIS [D19F], the protein stability index was determined as 1.75.

Take VAAALRYLQIFATRRSCICESQIS [D19C]: the protein stability index stood at 3.29.

Turning to VAAALRYLQIFATRRSCIPESQIS [D19P], the protein stability index came to 1.77.

VAAALRYLQIFATRRSCIVESQIS [D19V]: the protein stability index was 3.57.

Regarding EAAALRYLQIFATRRSCIDESQIS [V1E], the protein stability index is 1.58.

With WAAALRYLQIFATRRSCIDESQIS [V1W], the protein stability index was determined as 1.79.

As for MAAALRYLQIFATRRSCIDESQIS [V1M], the protein stability index amounted to 1.95.

In the case of KAAALRYLQIFATRRSCIDESQIS [V1K], the protein stability index is 1.65.

On to RAAALRYLQIFATRRSCIDESQIS [V1R], for which the protein stability index came to 2.21.

Consider VAAALKYLQIFATRRSCIDESQIS [R6K], for which the protein stability index worked out at 1.68.

On to VAAALMYLQIFATRRSCIDESQIS [R6M], for which the protein stability index was 4.04.

As for VAAALLYLQIFATRRSCIDESQIS [R6L], the protein stability index was determined as 3.52.

Turning to VAAALIYLQIFATRRSCIDESQIS [R6I], the protein stability index was determined as 4.08.

Take VAAALQYLQIFATRRSCIDESQIS [R6Q]: the protein stability index is 2.54.

VAAALDYLQIFATRRSCIDESQIS [R6D]: the protein stability index was found to be 1.69.

For the variant VAAALPYLQIFATRRSCIDESQIS [R6P], the protein stability index was 2.76.

Regarding VAAALCYLQIFATRRSCIDESQIS [R6C], the protein stability index came to 3.52.

For the variant VAAALYYLQIFATRRSCIDESQIS [R6Y], the protein stability index was 2.79.

VAAGLRYLQIFATRRSCIDESQIS [A4G]: the protein stability index came to 2.23.

Take VAACLRYLQIFATRRSCIDESQIS [A4C]: the protein stability index amounted to 2.83.

Take VAASLRYLQIFATRRSCIDESQIS [A4S]: the protein stability index amounted to 1.88.

Take VAATLRYLQIFATRRSCIDESQIS [A4T]: the protein stability index worked out at 1.88.

Regarding VAAFLRYLQIFATRRSCIDESQIS [A4F], the protein stability index was 1.65.

Regarding VAAMLRYLQIFATRRSCIDESQIS [A4M], the protein stability index was 3.33.

Consider VAAILRYLQIFATRRSCIDESQIS [A4I], for which the protein stability index amounted to 2.64.

With VAADLRYLQIFATRRSCIDESQIS [A4D], the protein stability index amounted to 2.19.

In the case of VAAPLRYLQIFATRRSCIDESQIS [A4P], the protein stability index turned out to be 3.34.

As to VAAWLRYLQIFATRRSCIDESQIS [A4W], the protein stability index stood at 2.27.

As for VAAALRYLQIFVTRRSCIDESQIS [A12V], the protein stability index stood at 2.09.

Take VAAALRYLQIFKTRRSCIDESQIS [A12K]: the protein stability index amounted to 2.13.

As to VAAALRYLQIFITRRSCIDESQIS [A12I], the protein stability index amounted to 3.18.

In the case of VAAALRYLQIFCTRRSCIDESQIS [A12C], the protein stability index turned out to be 2.17.

As to VAAALRYLQIFMTRRSCIDESQIS [A12M], the protein stability index came to 2.18.

In the case of VAAALRYLQIFYTRRSCIDESQIS [A12Y], the protein stability index was determined as 2.74.

As for VAAALRYLQIFRTRRSCIDESQIS [A12R], the protein stability index amounted to 2.46.

For the variant VAAALRYLQIFATRRSGIDESQIS [C17G], the protein stability index is 3.03.

In the case of VAAALRYLQIFATRRSIIDESQIS [C17I], the protein stability index was determined as 2.44.

VAAALRYLQIFATRRSEIDESQIS [C17E]: the protein stability index is 1.71.

For the variant VAAALRYLQIFATRRSQIDESQIS [C17Q], the protein stability index was 2.5.

For the variant VAAALRYLQIFATRRSKIDESQIS [C17K], the protein stability index was determined as 1.89.

For VAAALRYLQIFATRRSDIDESQIS [C17D], the protein stability index stood at 1.9.

Take VAAALRYLQIFATRRSHIDESQIS [C17H]: the protein stability index amounted to 1.27.

As for VAAADRYLQIFATRRSCIDESQIS [L5D], the protein stability index stood at 2.36.

As for VAAAPRYLQIFATRRSCIDESQIS [L5P], the protein stability index was 2.08.

In the case of VAAAARYLQIFATRRSCIDESQIS [L5A], the protein stability index was determined as 3.88.

Consider VAAAERYLQIFATRRSCIDESQIS [L5E], for which the protein stability index turned out to be 1.87.

For the variant VAAANRYLQIFATRRSCIDESQIS [L5N], the protein stability index worked out at 1.92.

With VAAAQRYLQIFATRRSCIDESQIS [L5Q], the protein stability index is 2.12.

With VAAAWRYLQIFATRRSCIDESQIS [L5W], the protein stability index was 3.03.

With VAAAIRYLQIFATRRSCIDESQIS [L5I], the protein stability index worked out at 3.7.

VAAACRYLQIFATRRSCIDESQIS [L5C]: the protein stability index was 1.18.

For the variant VAAAGRYLQIFATRRSCIDESQIS [L5G], the protein stability index worked out at 2.91.

With VAAAMRYLQIFATRRSCIDESQIS [L5M], the protein stability index came to 1.46.

On to VAAATRYLQIFATRRSCIDESQIS [L5T], for which the protein stability index stood at 1.66.

For the variant VAAALRYLWIFATRRSCIDESQIS [Q9W], the protein stability index was determined as 2.67.

Regarding VAAALRYLNIFATRRSCIDESQIS [Q9N], the protein stability index is 1.81.

For VAAALRYLVIFATRRSCIDESQIS [Q9V], the protein stability index was found to be 2.85.

As to VAAALRYLMIFATRRSCIDESQIS [Q9M], the protein stability index stood at 5.39.

With VAAALRYLPIFATRRSCIDESQIS [Q9P], the protein stability index was determined as 2.14.

Turning to VAAALRYLKIFATRRSCIDESQIS [Q9K], the protein stability index is 1.7.

Turning to VAAALRYLCIFATRRSCIDESQIS [Q9C], the protein stability index is 3.59.

Consider VAAALRYLTIFATRRSCIDESQIS [Q9T], for which the protein stability index is 3.26.

VAAALRYLDIFATRRSCIDESQIS [Q9D]: the protein stability index was 2.94.

Turning to VAAALRYLAIFATRRSCIDESQIS [Q9A], the protein stability index is 2.72.

In the case of VAAALRYLQIFATRRSCIDESEIS [Q22E], the protein stability index was found to be 2.15.

For the variant VAAALRYLQIFATRRSCIDESPIS [Q22P], the protein stability index came to 2.26.

Regarding VAAALRYLQIFATRRSCIDESVIS [Q22V], the protein stability index was found to be 2.87.

Take VAAALRYLQIFATRRSCIDESSIS [Q22S]: the protein stability index is 2.22.

On to VAAALRYLQIFATRRSCIDESCIS [Q22C], for which the protein stability index was 4.63.

Consider VAAALRYLQIFATRRSCIDESYIS [Q22Y], for which the protein stability index stood at 1.16.

Consider VAAALRYLQIFATRRSCIDESKIS [Q22K], for which the protein stability index was found to be 2.53.

Regarding VRAALRYLQIFATRRSCIDESQIS [A2R], the protein stability index worked out at 2.

Consider VYAALRYLQIFATRRSCIDESQIS [A2Y], for which the protein stability index was determined as 2.15.

As for VDAALRYLQIFATRRSCIDESQIS [A2D], the protein stability index was found to be 2.63.

Consider VLAALRYLQIFATRRSCIDESQIS [A2L], for which the protein stability index amounted to 2.9.

Turning to VPAALRYLQIFATRRSCIDESQIS [A2P], the protein stability index is 2.46.

As to VEAALRYLQIFATRRSCIDESQIS [A2E], the protein stability index worked out at 1.89.

Turning to VQAALRYLQIFATRRSCIDESQIS [A2Q], the protein stability index came out at 2.29.

As for VMAALRYLQIFATRRSCIDESQIS [A2M], the protein stability index is 1.99.

For the variant VIAALRYLQIFATRRSCIDESQIS [A2I], the protein stability index is 4.56.

As for VAAALRYLQIFATRRSCIDDSQIS [E20D], the protein stability index came to 2.1.

Regarding VAAALRYLQIFATRRSCIDWSQIS [E20W], the protein stability index worked out at 4.07.

Regarding VAAALRYLQIFATRRSCIDSSQIS [E20S], the protein stability index was 2.66.

Take VAAALRYLQIFATRRSCIDLSQIS [E20L]: the protein stability index was 3.32.

For the variant VAAALRYLQIFATRRSCIDCSQIS [E20C], the protein stability index turned out to be 3.76.

In the case of VAAALRYLQIFATRRSCIDTSQIS [E20T], the protein stability index came out at 3.24.

For the variant VAAALRYLQIFATRRSCIDESQIA [S24A], the protein stability index came out at 2.76.
